Experiments:
[1] = biological target: StayGold (CU17S/V168A) (Cytaeis uchidae); experiment: AUC; sedimentation equilibrium; purified recombinant StayGold at 2.8 uM in 50 mM HEPES-NaOH (pH 7.4), 24 C, absorbance at 497 nm
[2] = biological target: StayGold (CU17S/V168A) (Cytaeis uchidae); experiment: pseudonative SDS-PAGE; non-heated protein samples separated on 10% polyacrylamide gels

stoichiometry N [1]: 2 | stoichiometry N [2]: 2
Substance: StayGold (CU17S/V168A) (natural protein)
